Laboratory results published in paper PMC8881488, “Intricate coupling between the transactivation and basic-leucine zipper domains governs phosphorylation of transcription factor ATF4 by casein kinase 2” (The Journal of Biological Chemistry, 2022).

Target: T1, ATF4-275 (isolated transactivation domain of activating transcription factor 4) (human, UniProt P18848 1-275)
T1 construct: 15N-labelled (expressed in minimal medium) for the NMR titration; also called isolated TAD; ATF4 TAD; not shown: GST, N-terminal, cleaved
T1 sequence (looked up): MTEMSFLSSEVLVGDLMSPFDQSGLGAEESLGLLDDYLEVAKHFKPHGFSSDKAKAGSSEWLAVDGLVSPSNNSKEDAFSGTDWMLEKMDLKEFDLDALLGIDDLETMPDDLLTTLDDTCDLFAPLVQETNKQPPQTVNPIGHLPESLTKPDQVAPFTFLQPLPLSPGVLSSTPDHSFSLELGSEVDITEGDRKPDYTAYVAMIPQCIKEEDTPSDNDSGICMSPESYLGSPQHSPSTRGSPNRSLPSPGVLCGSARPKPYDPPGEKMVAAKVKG
Assay: NMR titration; 15N-labeled ATF4-275 titrated with increasing concentrations of unlabeled ATF4-bZip; 2D 1H-15N TROSY-HSQC, amide crosspeak intensity ratios; NMR samples in 20 mM MES pH 6.5, 50 mM NaCl
Details: both partners purified

B1: ATF4-bZip (isolated basic-leucine zipper domain of activating transcription factor 4) (domain or fragment, human, UniProt P18848 276-351, looked up)
chain: EKLDKKLKKMEQNKTAATRYRQKKRAEQEALTGECKELEKKNEALKERADSLAKEIQYLKDLIEEVRKARGKKRVP
notes: The limits 276-351 are those printed for the bZip domain; also called bZip domain; isolated bZip domain; source: E. coli BL21(DE3), purified (Glutathione-Sepharose, TEV cleavage, Superdex 200 gel filtration); not shown: GST, N-terminal, cleaved
B1: binds.
